This passage reports Kd, koff and kon results from patent publication US20220119540A1 (NANJING GENSCRIPT BIOTECH, published 2022).

First the molecules themselves.
T1: Recombinant human OX40-His protein (human, UniProt P43489 29-214, limits assumed)
T1 construct: Recombinant antigen protein; also called recombinant human OX-40 protein; human OX-40 protein; not shown: His tag
T1 sequence (looked up): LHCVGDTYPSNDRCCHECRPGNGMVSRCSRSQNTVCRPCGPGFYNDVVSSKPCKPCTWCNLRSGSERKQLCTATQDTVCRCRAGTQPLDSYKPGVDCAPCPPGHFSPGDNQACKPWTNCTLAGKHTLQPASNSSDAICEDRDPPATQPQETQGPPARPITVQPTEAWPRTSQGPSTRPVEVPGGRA

B1: AH02906 humanized anti-human OX40 monoclonal antibody (recombinant human IgG1/kappa) (antibody, V domains shown)
VH: QVQLVQSGAEVKKPGASVKVSCKASGYTFTDYSMHWVKQAPGQGLEWMGWISTETGEPTYADDFKGRFTITLDTSASTAYMELSSLRSEDTAVYYCARVRPWYLAVWGQGTLVTVSS
VL: DIQMTQSPSSLSASVGDRVTITCRASQDISNYLNWYQQKPGKAPKLLIYYTSRLYSGVPSRFSGSGSGTDYTLTISSLQPEDIATYFCQQANTLPLTFGGGTKLEIK
B2: AH02915 humanized anti-human OX40 monoclonal antibody (recombinant human IgG1/kappa) (antibody, V domains shown)
VH: QVQLVQSGAEVKKPGASVKVSCKASGYTFTDYSMHWVKQAPGQGLEWMGWISTETGEPTYADDFKGRVTITLDTSASTAYLEISSLRSEDTAVYYCARVRPWYLAVWGQGTLVTVSS
VL: DIQMTQSPSSLSASVGDRVTITCRASQDISNYLNWYQQKPGKAPKLLIYYTSRLYSGVPSRFSGSGSGTDFTLTISSLQPEDIATYFCQQANTLPLTFGGGTKLEIK
B3: AH02925 humanized anti-human OX40 monoclonal antibody (recombinant human IgG1/kappa) (antibody, V domains shown)
VH: QVQLVQSGAEVKKPGASVKVSCKASGYTFTDYSMHWVKQAPGQGLEWMGWISTETGEPTYADDFKGRVTITRDTSASTAYLEISSLRSEDTAVYFCARVRPWYLAVWGQGTLVTVSS
VL: DIQMTQSPSSLSASVGDRVTITCRASQDISNYLNWYQQKPGKAVKLLIYYTSRLYSGVPSRFSGSGSGTDFTLTISSLQPEDIATYYCQQANTLPLTFGGGTKLEIK
B4: AH02917 humanized anti-human OX40 monoclonal antibody (recombinant human IgG1/kappa) (antibody, V domains shown)
VH: QVQLVQSGAEVKKPGASVKVSCKASGYTFTDYSMHWVKQAPGQGLEWMGWISTETGEPTYADDFKGRFTITLDTSASTAYMELSSLRSEDTAVYFCARVRPWYLAVWGQGTLVTVSS
VL: DIQMTQSPSSLSASVGDRVTITCRASQDISNYLNWYQQKPGKAVKLLIYYTSRLYSGVPSRFSGSGSGTDFTLTISSLQPEDIATYYCQQANTLPLTFGGGTKLEIK
B5: AH02922 humanized anti-human OX40 monoclonal antibody (recombinant human IgG1/kappa) (antibody, V domains shown)
VH: QVQLVQSGAEVKKPGASVKISCKASGYTFTDYSMHWVRQAPGQRLEWMGWISTETGEPTYADDFKGRVTITRDTSASTAYMELSSLRSEDTAVYYCARVRPWYLVVWGQGTLVTVSS
VL: DIQMTQSPSSLSASVGDRVTITCRASQDISNYLNWYQQKPGKAPKLLIYYTSRLYSGVPSRFSGSGSGTDYTLTISSLQPEDIATYYCQQANTLPLTFGGGTKLEIK
B6: AH02906, prokaryotically expressed antibody product (back-mutation screening) (Fab, V domains shown)
VH: QVQLVQSGAEVKKPGASVKVSCKASGYTFTDYSMHWVKQAPGQGLEWMGWISTETGEPTYADDFKGRFTITLDTSASTAYMELSSLRSEDTAVYYCARVRPWYLAVWGQGTLVTVSS
VL: DIQMTQSPSSLSASVGDRVTITCRASQDISNYLNWYQQKPGKAPKLLIYYTSRLYSGVPSRFSGSGSGTDYTLTISSLQPEDIATYFCQQANTLPLTFGGGTKLEIK
B7: AH02915, prokaryotically expressed antibody product (back-mutation screening) (Fab, V domains shown)
VH: QVQLVQSGAEVKKPGASVKVSCKASGYTFTDYSMHWVKQAPGQGLEWMGWISTETGEPTYADDFKGRVTITLDTSASTAYLEISSLRSEDTAVYYCARVRPWYLAVWGQGTLVTVSS
VL: DIQMTQSPSSLSASVGDRVTITCRASQDISNYLNWYQQKPGKAPKLLIYYTSRLYSGVPSRFSGSGSGTDFTLTISSLQPEDIATYFCQQANTLPLTFGGGTKLEIK
B8: AH02922, prokaryotically expressed antibody product (back-mutation screening) (Fab, V domains shown)
VH: QVQLVQSGAEVKKPGASVKISCKASGYTFTDYSMHWVRQAPGQRLEWMGWISTETGEPTYADDFKGRVTITRDTSASTAYMELSSLRSEDTAVYYCARVRPWYLVVWGQGTLVTVSS
VL: DIQMTQSPSSLSASVGDRVTITCRASQDISNYLNWYQQKPGKAPKLLIYYTSRLYSGVPSRFSGSGSGTDYTLTISSLQPEDIATYYCQQANTLPLTFGGGTKLEIK
B9: AH02916, prokaryotically expressed antibody product (back-mutation screening) (Fab, V domains shown)
VH: QVQLVQSGAEVKKPGASVKVSCKASGYTFTDYSMHWVKQAPGQGLEWMGWISTETGEPTYADDFKGRVTITLDTSASTAYMELSSLRSEDTAVYYCARVRPWYLAVWGQGTLVTVSS
VL: DIQMTQSPSSLSASVGDRVTITCRASQDISNYLNWYQQKPGKAVKLLIYYTSRLYSGVPSRFSGSGSGTDYTFTISSLQPEDIATYFCQQANTLPLTFGGGTKLEIK
B10: AH02917, prokaryotically expressed antibody product (back-mutation screening) (Fab, V domains shown)
VH: QVQLVQSGAEVKKPGASVKVSCKASGYTFTDYSMHWVKQAPGQGLEWMGWISTETGEPTYADDFKGRFTITLDTSASTAYMELSSLRSEDTAVYFCARVRPWYLAVWGQGTLVTVSS
VL: DIQMTQSPSSLSASVGDRVTITCRASQDISNYLNWYQQKPGKAVKLLIYYTSRLYSGVPSRFSGSGSGTDFTLTISSLQPEDIATYYCQQANTLPLTFGGGTKLEIK
B11: AH02921, prokaryotically expressed antibody product (back-mutation screening) (Fab, V domains shown)
VH: QVQLVQSGPEVKKPGASVKVSCKASGYTFTDYSMHWVRQAPGQGLEWMGWISTETGEPTYADDFKGRFTITLDTSASTAYLEISSLRSEDTAVYFCARVRPWYLTVWGQGTLVTVSS
VL: DIQMTQSPSSLSASVGDRVTITCRASQDISNYLNWYQQKPGKAPKLLIYYTSRLYSGVPSRFSGSGSGTDYTLTISSLQPEDIATYFCQQANTLPLTFGGGTKLEIK
B12: AH02913, prokaryotically expressed antibody product (back-mutation screening) (Fab, V domains shown)
VH: QVQLVQSGPEVKKPGASVKVSCKASGYTFTDYSMHWVKQAPGQGLEWMGWISTETGEPTYADDFKGRVTITLDTSASTAYMELSSLRSEDTAVYFCARVRPWYLAVWGQGTLVTVSS
VL: DIQMTQSPSSLSASVGDRVTITCRASQDISNYLNWYQQKPGKAVKLLIYYTSRLYSGVPSRFSGSGSGTDYTFTISSLQPEDIATYFCQQANTLPLTFGGGTKLEIK
B13: AH02919, prokaryotically expressed antibody product (back-mutation screening) (Fab, V domains shown)
VH: QVQLVQSGAEVKKPGASVKVSCKASGYTFTDYSMHWVKQAPGQGLEWMGWISTETGEPTYADDFKGRVTITRDTSASTAYLEISSLRSEDTAVYFCARVRPWYLAVWGQGTLVTVSS
VL: DIQMTQSPSSLSASVGDRVTITCRASQDISNYLNWYQQKPGKAVKLLIYYTSRLYSGVPSRFSGSGSGTDYTLTISSLQPEDIATYYCQQANTLPLTFGGGTKLEIK

The first assay addresses T1, Recombinant human OX40-His protein. As to the kind of experiment: SPR (Biacore 8K), OX40-HIS coupled to chip, antibody as analyte, 1:1 binding model. As for the experimental part: The chip surface was equilibrated with HBS-EP buffer at a flow rate of 10 μl/min for 5 min, and then a 1:1 mixture of “NHS+EDC” was injected at a flow rate of 10 μl/min for 100 sec to activate the chip. The antigen protein (OX40-HIS) diluted in 10 mM sodium acetate buffer was injected for about 180 sec at a flow rate of 10 μl/min for coupling, and finally ethanolamine was injected for 200 sec at a flow rate of 10 μl/min to block the surface.
Three pre-cycles were performed with the HBS-EP buffer as a sample to balance the chip to stabilize the baseline. A low concentration of antibody was injected at a flow rate of 30 μl/min for 200 sec, to allow the antigen to bind to the antibody, and then the buffer was injected at a flow rate of 30 μl/min for 400 sec for dissociation. 10 mM Gly-HCl pH2.0 was injected three times each for 30 sec at a flow rate of 30 μl/min for regeneration, to complete one cycle.
The antibody concentration was changed to carry out the cycle for measurement at a next gradient concentration until all gradient concentrations (2.5 nM, 5 nM, 10 nM, 20 nM, 40 nM, and […]) and the replicate (such as 20 nM) were tested. The experimental data was double subtracted (minus the background values of the control channel and zero concentration), and fitted to the “1:1 binding” model in the Biacore 8K evaluation software. Biacore 8K was used to determine the affinity of the antibody to the OX40-HIS recombinant protein.
On the technique in general: Surface plasmon resonance follows binding to a sensor surface in real time, without labels.
B1: the Kd is 2.83 nM, the koff is 0.00116 s⁻¹ and the kon amounted to 408000 M⁻¹ s⁻¹.
In the case of B2, the Kd stood at 3 nM, the koff was determined as 0.00142 s⁻¹ and the kon was found to be 472000 M⁻¹ s⁻¹.
Consider B3, for which the Kd came to 2.22 nM, the koff was found to be 0.00115 s⁻¹ and the kon is 520000 M⁻¹ s⁻¹.
For the molecule B4, the Kd was determined as 2.6 nM, the koff was 0.00106 s⁻¹ and the kon was 407000 M⁻¹ s⁻¹.
The corresponding values for B5 are 1.36 nM, 0.00029 s⁻¹ and 213000 M⁻¹ s⁻¹.

For a further assay the target is unchanged. As to the kind of experiment: kinetic ranking (RU, 1:1 binding model), prokaryotically expressed antibody product as ligand, OX40-His as analyte.
With B6, the Kd amounted to 15.6 nM, the koff amounted to 0.00511 s⁻¹ and the kon stood at 328000 M⁻¹ s⁻¹.
On to B7, for which the dissociation constant (Kd) stood at 14.3 nM, the koff worked out at 0.00307 s⁻¹ and the association rate constant (kon) was found to be 215000 M⁻¹ s⁻¹.
Turning to B8, the Kd turned out to be 2.37 nM, the koff worked out at 0.000534 s⁻¹ and the kon was 225000 M⁻¹ s⁻¹.
As for B9, the Kd amounted to 15.7 nM, the koff is 0.00384 s⁻¹ and the kon worked out at 245000 M⁻¹ s⁻¹.
The corresponding values for B10 are 13.7 nM, 0.00396 s⁻¹ and 288000 M⁻¹ s⁻¹.
Take B11: the Kd came out at 3.35 nM, the koff is 0.0013 s⁻¹ and the kon was found to be 388000 M⁻¹ s⁻¹.
Regarding B12, the Kd worked out at 12.5 nM, the koff turned out to be 0.00425 s⁻¹ and the kon is 339000 M⁻¹ s⁻¹.
For B13, the Kd came out at 15.1 nM, the koff came out at 0.00505 s⁻¹ and the kon amounted to 335000 M⁻¹ s⁻¹.

As a reminder, the Kd is the free concentration of one partner at which half of the binding sites on the other are occupied at equilibrium, for simple one-to-one binding. The koff is the rate constant with which the complex falls apart. Usually kon stands for the rate constant with which the complex forms.
